Test results reported in patent US20100204147A1, “Methods For Delivering Thymosin Beta 4, Analogues, Isoforms and Other Derivatives” (REGENERX BIOPHARMACEUTICALS, INC., priority 2003, published 2010).

Columns and labels:
fibrin [1] = biological target: T1, fibrin (Homo sapiens, UniProt P02671); test: Solid-phase binding assay (ELISA), immobilized fibrin
T1 construct: purchased Enzyme Research Laboratories (South Bend, Ind.); host or cells: fibrin generated in the well or tube from the purchased fibrinogen with bovine thrombin
T1 sequence (P02671 36-629 limits assumed): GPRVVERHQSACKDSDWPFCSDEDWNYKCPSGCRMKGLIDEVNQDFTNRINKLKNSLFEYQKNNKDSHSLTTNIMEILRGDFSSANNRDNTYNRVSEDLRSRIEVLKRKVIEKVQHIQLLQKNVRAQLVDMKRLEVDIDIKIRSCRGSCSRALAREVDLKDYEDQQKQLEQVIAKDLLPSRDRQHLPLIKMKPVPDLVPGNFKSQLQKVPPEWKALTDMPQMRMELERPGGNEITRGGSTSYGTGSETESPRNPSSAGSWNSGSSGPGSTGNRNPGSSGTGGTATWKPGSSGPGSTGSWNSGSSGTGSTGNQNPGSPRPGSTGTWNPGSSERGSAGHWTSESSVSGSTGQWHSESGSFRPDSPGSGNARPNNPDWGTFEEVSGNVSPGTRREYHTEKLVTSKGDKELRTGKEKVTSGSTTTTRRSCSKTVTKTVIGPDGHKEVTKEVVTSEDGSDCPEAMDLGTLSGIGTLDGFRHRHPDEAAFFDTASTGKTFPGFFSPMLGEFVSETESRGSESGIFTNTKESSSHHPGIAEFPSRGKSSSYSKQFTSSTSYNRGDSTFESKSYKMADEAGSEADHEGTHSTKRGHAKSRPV
T1 sequence (P02675 45-491 partner limits assumed): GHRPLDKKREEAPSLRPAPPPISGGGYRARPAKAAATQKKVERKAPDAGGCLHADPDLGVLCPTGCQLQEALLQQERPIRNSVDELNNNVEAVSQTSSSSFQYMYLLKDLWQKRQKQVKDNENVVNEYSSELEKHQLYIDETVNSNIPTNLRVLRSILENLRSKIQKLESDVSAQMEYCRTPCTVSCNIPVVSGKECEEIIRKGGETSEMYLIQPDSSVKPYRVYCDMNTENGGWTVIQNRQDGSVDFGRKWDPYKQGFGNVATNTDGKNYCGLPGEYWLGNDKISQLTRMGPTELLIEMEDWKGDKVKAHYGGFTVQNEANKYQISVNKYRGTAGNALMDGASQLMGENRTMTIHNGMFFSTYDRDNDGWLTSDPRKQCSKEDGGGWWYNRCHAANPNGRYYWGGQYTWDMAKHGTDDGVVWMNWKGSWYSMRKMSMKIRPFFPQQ
T1 sequence (P02679 27-437 isoform P02679-2 partner limits assumed): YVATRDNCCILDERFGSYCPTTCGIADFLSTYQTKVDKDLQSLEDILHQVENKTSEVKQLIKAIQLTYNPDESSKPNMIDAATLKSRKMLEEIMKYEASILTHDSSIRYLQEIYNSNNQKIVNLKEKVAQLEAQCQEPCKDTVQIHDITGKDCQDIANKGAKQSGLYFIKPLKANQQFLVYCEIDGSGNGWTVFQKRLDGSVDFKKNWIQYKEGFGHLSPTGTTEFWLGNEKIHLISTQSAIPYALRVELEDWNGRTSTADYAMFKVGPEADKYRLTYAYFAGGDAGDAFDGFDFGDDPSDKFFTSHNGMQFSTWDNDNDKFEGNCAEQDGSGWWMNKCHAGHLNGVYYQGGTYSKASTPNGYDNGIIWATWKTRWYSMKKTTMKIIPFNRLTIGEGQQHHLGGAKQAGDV
Description: The interaction between thymosin β4 and fibrin(ogen) and its fragments in the presence or absence of FXIIIa was studies by ELISA using plastic microliter plates. Wells of microliter plates were coated overnight at […] with fibrinogen and fibrin at 10 μg/mL or with the recombinant fragments of 20 μg/ml, all in 0.1 M NaHCO3 buffer, pH 8.3. Fibrin was made by addition to the wells of a mixture containing 10 μg/mL fibrinogen 1 NIH u/ml thrombin and 400 u/ml aprotinin, followed by overnight incubation at +4° C. The wells were then blocked by incubation with Super Blocker (Pierce) at 37° C. for 1 h. Following washing with TBS containing 0.05% Tween-20 (TBS-Tween), the indicated concentrations of thymosin β4, FXIII, FXIIIa(Thr) and FXIIIa(Ca) were added to the wells and incubated for 2-2.5 h at 37° C. Bound (incorporated) thymosin β4 was detected by the reaction with rabbit anti-thymosin β4 serum and peroxidase-conjugated anti-rabbit IgG. A TMB Microwell Peroxidase Substrase was added to the wells, and the incorporated thymosin β4 was measured spectrophotometrically at 450 nm.

fibrin [2] = biological target: T1, fibrin; test: Factor XIIIa-mediated incorporation of FITC-labeled thymosin β4 into fibrin (spectrophotometric); type: biochemical
Description: (§1) Reactions of incorporation of FITC-labeled and unlabeled thymosin β4 into fibrinogen and fibrin were performed in Eppendorf tubes containing a mixture of fibrinogen at 3 mg/mL (9 μM) and thymosin β4 or FITC-labeled thymosin β4 at […] (30 μM) in 100 μL TBS with 2.5 mM CaCl2. The reactions were initiated by addition of FXIIIa(Ca) or FXIIIa(Thr) to final concentration of 30 μg/mL. The final concentration of thrombin in the FXIIIa(Thr)-containing mixtures was made at 2.5 NIH u/mL, sufficient to rapidly form fibrin clot which was observed visually. The reactions with FITC-labeled thymosin β4 lasted for 4 hours at 37° C. in the dark and were stopped by heat inactiviation of the enzymes in boiling water for 5 min during fibrinogen and fibrin denatured and precipitated. The pellets were centrifuged and washed 3 times in TBS and then solubilized. The amounts of fibrin(ogen) and FITC-labeled thymosin β4 in the solubilized pellet were determined spectrophotomertrically using absorption molar coefficients E280,1%=15.0 and ε495=72,000 M^−1cm^−1, respectively. To prepare samples with unlabeled thymosin β4 for analysis by SDS-PAGE and Western blot the reaction mixtures at the indicated time were heat-inactivated as above and solubilized by addition of sample buffer (Invitrogen) containing SDS and reducing agent.

fibrin [3] = biological target: T1, fibrin; test: Western blot time course of factor XIIIa-mediated incorporation into fibrin; type: biochemical; conditions: mixture of thrombin, factor XIII, thymosin β4 and fibrin; immunoblotting
Description: as §1, with “To prepare samples with unlabeled thymosin β4 for analysis by SDS-PAGE and Western blot the reaction mixtures at the indicated time were heat-inactivated as above and solubilized by addition of sample buffer (Invitrogen) containing SDS and reducing agent.” left out
Detection of thymosin β4 incorporated into fibrin(ogen) and its fragments was performed as follows. […] The membrane was blocked with a casein blocker for 1 hour and thymosin β4 was detected by the reaction with rabbit anti-thymosin β4 serum and peroxidase-conjugated anti-rabbit IgG. […]

**Q.** thymosin β4 was tested. Which “non-covalent interaction with immobilized fibrin (ELISA signal)” value (fibrin [1]; absence of factor XIII or non-activated factor XIII) did it give?
**A.** The value was “no significant non-covalent interaction”.

**Q.** And the “factor XIIIa-mediated incorporation into immobilized fibrin (ELISA signal)” value (fibrin [1]; factor XIII activated by CaCl2)?
**A.** The value was “higher than that into fibrinogen”.

**Q.** What about the “degree of incorporation into fibrin” value (fibrin [2]; fibrinogen 9 μM, thymosin β4 30 μM, factor XIIIa with thrombin, 4 hours, 37° C.) of the same substance?
**A.** Its value is 0.4 moles per mole.

**Q.** And the “molar incorporation ratio of thymosin β4 to fibrin” value (fibrin [2]; physiological concentrations of fibrin(ogen) and factor XIII)?
**A.** The value was 0.4.

**Q.** What about the “time at which the amount of incorporated (cross-linked) thymosin β4 reaches saturation” value (fibrin [3]) of the same substance?
**A.** Its value is 4 h.
